Results as given in patent publication US20020143164A1, “Ras activator nucleic acid molecules, polypeptides and methods of use” (priority 1999, published 2002).

Tests used:
Ras [1] = test: In vitro pull-down of GRF4 with GST-Ras of different nucleotide-bound states; format: binding; settings: lysates of 293T cells with Flag-tagged GRF4, GST-Ras beads
Source text: Beads were washed and resolved on SDS-PAGE and subsequently immunoblofted with anti-Flag antibodies to detect Flag-tagged GRF4. […] However, it bound to Ras differentially, depending on the nucleotide-bound states of Ras.

Rat 2 fibroblasts = test: Transformation assay (foci formation); format: cell-based; settings: transient transfection, cultured three weeks
Procedure: Transformation assays were performed using Rat 2 fibroblasts, a suitable cell type for this assay. Rat 2 cells were transiently transfected with empty vector, GRF4 construct, or mutant RasV12 construct (a transforming form of Ras used as a positive control). After transfection, cells were cultured over a period of three weeks with routine changes of media, and were routinely examined for morphology changes under a light microscope.

Ras [2] = test: In vitro GEF assay (32P-α-GTP binding to Ras); format: biochemical
Procedure: Full length (GRF4) or CDC25-deleted (ΔCDC25) GRF4, or GRF2, each Flag-tagged, were immunoprecipitated from transfected Hek-293T cells using anti Flag antibodies. Equal amounts of immunoprecipitates were washed with GEF lysis buffer, equilibrated with GEF assay buffer and incubated with 32P-α-GTP (diluted in cold GTP) plus 100 ng of Ras for 30 min. Bound and unbound radiolabelled GTP were then separated by filtration, and the amount of bound GTP determined by scintillation counting, as detailed in the Method section. Fold Ras activation was compared to the activation of Ras in the absence of GRFs (which was set to 1).
GRF4 has a RasGRF(GEF) activity/function. To show its GEF activity, we performed in-vitro GEF assays. Briefly, GST-Ras was added alone (tubes 1 and 2) or along with GST-CDC25, or immunoprecipitated full-length of GRF4 (tubes 3 and 4). All tubes contained assay mixture including cold GTP and P32 alpha GTP. The exchange reactions were stopped at the indicated times. The stopped reaction mixtures were passed through nitrocellulose filters which were then washed with stop buffer to separate bound and unbound nucleotides. Filters were dried and then quantified by scintillation counting to determine bound CPM. The labeled nucleotides trapped on the washed filters were assumed to be Ras-associated. The difference in bound CPM over 30 minute period was determined for reactions where GST-Ras was added alone (it is the difference in bound CPM between tubes 1 and 2) and where GST-Ras was added with a GEF (it is the difference in bound CPM between tubes 3 and 4).

GRF4-cNMP-BD = molecular target: T1, GRF4-cNMP-BD (Homo sapiens, UniProt Q9Y4G8); test: cAMP-agarose binding assay; settings: cAMP agarose beads, anti GRF4 immunoblot
T1 construct: The GST-GRF4-cNMP-BD (residue 101-303); made in house
T1 sequence (Q9Y4G8 101-303): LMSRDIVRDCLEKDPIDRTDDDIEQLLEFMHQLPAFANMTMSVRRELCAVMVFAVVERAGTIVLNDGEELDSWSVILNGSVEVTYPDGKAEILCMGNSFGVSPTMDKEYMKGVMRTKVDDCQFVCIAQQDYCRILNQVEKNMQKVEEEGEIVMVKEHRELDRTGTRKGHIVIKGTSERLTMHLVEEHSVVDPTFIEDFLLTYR
Procedure: Right and left panels in (b) represent two separate experiments.
Following extensive washes in HNTG (20 mM Hepes, pH 7.5, 150 mM NaCl, 0.1% Triton ×100, 10% Glycerol) proteins were eluted off beads with sample buffer, separated on SDS-PAGE and immunoblotted with either anti GST antibodies for the in vitro binding experiments, or with anti GRF4 antibodies for the pull down experiments.

Ras [3] = test: Ras activation assay in living cells, GRF4 and deletion mutants expressed in HEK-293T cells; format: cell-based, human; settings: HEK-293T cells, no cNMP stimulation
Procedure: HEK-293T cells were transfected with vector alone, GRF4 (WT), GRF4 lacking its cNMP-BD (ΔcNMP-BD) or its CDC25 domain (ΔCDC25), and then treated (or not) with 8-Br-cAMP. Cell lysates were then incubated with GST-Raf1-RBD to precipitate active Ras, and immunobloited with anti Ras antibodies as above (upper panel). Lower panels are controls for total endogenous Ras and transfected GRF4 or its mutants.
Flag, HA or myc tags was added to the N-terminus of full length GRF4 using PCR, and subcloned into the mammalian expression vector pCMV5 (Invitrogen). Mutants GRF4 with deletion of the CDC25 domain (residue 711-1007, GRF4DCDC25 or DCDC25 for short), the cNMP-BD (residue 134-254, DcNMP-BD), the PLPF motif in the PDZ domain (residue 396-399, -PLPF), or bearing mutations in the PDZ-binding motif (SAV to AAA), were generated using PCR. The GST-GRF4-cNMP-BD (residue 101-303) and GST-Carboxy-terminus (residue 1348-1499) were PCR-generated and cloned into pGEX-2T ( Pharmacia). The latter construct was used to generate a fusion protein (GST-GRF4C terminus) which was used to immunize rabbits for the generation of polyclonal anti GRF4 antibodies.
HEK-293T cells were transfected as above, serum starved overnight and then subjected to various treatments, as described in the text. […] GTP in the lysates was determined using activation specific probes as described. Briefly, to determined the levels of active Ras (Ras-GTP) in cell, sepharose-bound GST fusion protein of the Ras-binding domain (RBD) of Raf-1 (GST-Raf1-RBD; Upstate Biotechnology Inc.) was used to precipitate Ras-GTP from cell lysates, and the amount of Ras-GTP determined by immunoblotting with anti Ras antibodies (Quality Biotech). Similarly, to determine the level of Rap1-GTP in cell lysates, sepharose-bound GST fusion proteins of the Rap1-binding domain of RaIGDS (GST-RaIGDS-RBD) were used to precipitate Rap1-GTP, which was then detected on a Western blot using anti-Rap1 antibodies (Transduction Lab).

Rap1 = Rap1 activation assay in living cells (GST-RalGDS-RBD pull-down); format: cell-based, human; settings: HEK-293T cells, via CDC25 domain
Procedure: HEK-293T cells were transfected as above, serum starved overnight and then subjected to various treatments, as described in the text. Cells were lysed with lysis buffer (25 mM Hepes, pH 7.5, 150 mM NaCl, 1% NP-40, 0.25% Na deoxycholate, 10% glycerol, 25 mM NaF, 10 mM MgCl2, 1 mM EDTA, 1 mM NaVO4, […]) and the level of Ras.GTP or Rap. GTP in the lysates was determined using activation specific probes as described. Briefly, to determined the levels of active Ras (Ras-GTP) in cell, sepharose-bound GST fusion protein of the Ras-binding domain (RBD) of Raf-1 (GST-Raf1-RBD; Upstate Biotechnology Inc.) was used to precipitate Ras-GTP from cell lysates, and the amount of Ras-GTP determined by immunoblotting with anti Ras antibodies (Quality Biotech). Similarly, to determine the level of Rap1-GTP in cell lysates, sepharose-bound GST fusion proteins of the Rap1-binding domain of RaIGDS (GST-RaIGDS-RBD) were used to precipitate Rap1-GTP, which was then detected on a Western blot using anti-Rap1 antibodies (Transduction Lab).

B1: GRF4: Ras guanine nucleotide exchange factor polypeptide, SEQ ID NO: 2, 1499 amino acids (protein, listed as Homo sapiens)
chain: MKPLAIPANHGVMGQQEKHSLPADFTKLHLTDSLHPQVTHVSSSHSGCSITSDSGSSSLSDIYQATESEAGDMDLSGLPETAVDSEDDDDEEDIERASDPLMSRDIVRDCLEKDPIDRTDDDIEQLLEFMHQLPAFANMTMSVRRELCAVMVFAVVERAGTIVLNDGEELDSWSVILNGSVEVTYPDGKAEILCMGNSFGVSPTMDKEYMKGVMRTKVDDCQFVCIAQQDYCRILNQVEKNMQKVEEEGEIVMVKEHRELDRTGTRKGHIVIKGTSERLTMHLVEEHSVVDPTFIEDFLLTYRTFLSSPMEVGKKLLEWFNDPSLRDKVTRVVLLWVNNHFNDFEGDPAMTRFLEEFENNLEREKMGGHLRLLNIACAAKAKRRLMTLTKPSREAPLPFILLGGSEKGFGIFVDSVDSGSKATEAGLKRGDQILEVNGQNFENIQLSKAMEILRNNTHLSITVKTNLFVFKELLTRLSEEKRNGAPHLPKIGDIKKASRYSIPDLAVDVEQVIGLEKVNKKSKANTVGGRNKLKKILDKTRISILPQKPYNDIGIGQSQDDSIVGLRQTKHIPTALPVSGTLSSSNPDLLQSHHRILDFSATPDLPDQVLRVFKADQQSRYIMISKDTTAKEVVIQAIREFAVTATPDQYSLCEVSVTPEGVIKQRRLPDQLSKLADRIQLSGRYYLKNNMETETLCSDEDAQELLRESQISLLQLSTVEVATQLSMRNFELFRNIEPTEYIDDLFKLRSKTSCANLKRFEEVINQETFWVASEILRETNQLKRMKIIKHFIKIALHCRECKNFNSMFAIISGLNLAPVARLRTTWEKLPNKYEKLFQDLQDLFDPSRNMAKYRNVLNSQNLQPPIIPLFPVIKKDLTFLHEGNDSKVDGLVNFEKLRMIAKEIRHVGRMASVNMDPALMFRTRKKKWRSLGSLSQGSTNATVLDVAQTGGHKKRVRRSSFLNAKKLYEDAQMARKVKQYLSNLELEMDEESLQTLSLQCEPATNTLPKNPGDKKPVKSETSPVAPRAGSQQKAQSLPQPQQQPPPAHKINQGLQVPAVSLYPSRKKVPVKDLPPFGINSPQALKKILSLSEEGSLERHKKQAEDTISNASSQLSSPPTSPQSSPRKGYTLAPSGTVDNFSDSGHSEISSRSSIVSNSSFDSVPVSLHDERRQRHSVSIVETNLGMGRMERRTMIEPDQYSLGSYAPMSEGRGLYATATVISSPSTEELSQDQGDRASLDAADSGRGSWTSCSSGSHDNIQTIQHQRSWETLPFGHTHFDYSGDPAGLWASSSHMDQIMFSDHSTKYNRQNQSRESLEQAQSRASWASSTGYWGEDSEGDTGTIKRRGGKDVSIEAESSSLTSVTTEETKPVPMPAHIAVASSTTKGLIARKEGRYREPPPTPPGYIGIPITDFPEGHSHPARKPPDYNVALQRSRMVARSSDTAGPSSVQQPHGHPTSSRPVNKPQWHKPNESDPRLAPYQSQGFSTEEDEDEQVSAV
Q: Which results are given for B1?
A: Binding to EDTA-treated Ras (nucleotide-free) (Ras [1]): bound strongly; Binding to Ras-GDP (Ras [1]): bound weakly; Binding to Ras-GTP (Ras [1]): bound strongly; Foci formation / transformed phenotype of transfected cells (Rat 2 fibroblasts): induced foci formation; In vitro GEF activity on Ras (Ras [2]): active on Ras; Fold Ras activation in vitro (activation without GRFs set to 1) (Ras [2]; immunoprecipitated Flag-tagged protein, 100 ng Ras, 30 min): ~2.9 fold; Precipitation by immobilized cAMP from lysates of expressing HEK-293T cells (GRF4-cNMP-BD): able to precipitate; Activation of endogenous Ras by heterologous expression (Ras [3]): weak activation; Activation of Rap1 in cells (Rap1): mediates activation of Rap1
